The values below come from US20260185137A1, “FRET Active E2-UBL Conjugates and Uses Thereof” (Board of Regents, The University of Texas System, priority 2021, published 2026).

One data set addresses T1, TRIM5α RING domain (Macaca mulatta, UniProt Q0PF16).
T1 construct: The R1 constructs encompass residues 2-90 of rhesus monkey TRIM5α; 6His (N, cleaved yes); GB1 solubility tag (N, cleaved yes); made in house; host or cells: bacteria
In words: 15N HSQC NMR spectroscopy of RING constructs (dimer-monomer exchange). The conditions noted are these: NMR time scale, 298K. Set-up: species or system rhesus monkey. As to the method:
We then collected series of ^15N HSQC spectra by gradually decreasing protein concentration of the R1-WT sample from […] to 10 μM. As the concentration of the sample was lowered one set of peaks became progressively weaker whereas a new set of peaks appeared and became dominant (FIG. 2A and FIG. 2B). […] The findings confirmed that the R1-WT construct exists in a dimer-monomer equilibrium and that the two distinct sets of NMR signals present at high and low concentrations correspond to the dimeric and monomeric states of the protein, respectively.
NMR spectroscopy. All NMR experiments were performed in 50 mM Sodium Phosphate (pH 7.5), 150 mM NaCl, 1 mM TCEP, 10% (v/v) D2O, 0.04% (w/v) NaN3, and the data collected at 298K on a Bruker Avance 700-MHz spectrometer equipped with a cryoprobe. Backbone assignments were carried out using standard TROSY triple resonance NMR experiments (HNCO, HN(CA)CO, HN(CO)CA, HNCA, HNCACB, and HN(CO)CACB). Protein concentrations for each experiment are shown in the corresponding figures or noted in figure legends. The NMR data were processed using NMRPipe and spectra evaluated using NMRFAM-Sparky.

The target of another data set is T2, UBE2N/V2-Ub conjugate (Homo sapiens, UniProt P61088).
T2 construct: made in house; host or cells: bacteria
Put plainly: FRET ubiquitin discharge assay, UBE2N/V2-Ub conjugate. Type of data set: biochemical. The conditions noted are these: per RING monomer; room temperature. The text has this:
To evaluate contributions of distinct RING oligomeric states to TRIM5α autoubiquitination we investigated the catalytic activity of the RING constructs. E3 ubiquitin ligases catalyze the transfer of ubiquitin from the high-energy thioester-linked E2-Ub conjugates onto an amine group of the substrate. One of the challenges in the mechanistic studies of E3 ligases is the difficulty of measuring rates of chemical transformations catalyzed by E3 ligases with sufficient precision. In this study we developed a FRET-based ubiquitin discharge assay that allows continuous, real-time measurement of E3-catalyzed ubiquitin release from E2-Ub conjugates present at nanomolar concentrations in multiple samples in parallel using a fluorescence plate reader (FIG. 3A). […] FRET signals of the E2-Ub conjugates were recorded as a function of time following addition of different RING constructs using AF488 excitation (485/20 nm) and AF594 emission (645/40 nm) bandpass filters. We observed that more than 40% of the total fluorescence signal decayed in a RING-dependent fashion and could, therefore, be attributed to the FRET signal of the conjugate. The outstanding sensitivity, signal-to-noise and throughput of the FRET decay measurements enabled robust and accurate quantification of ubiquitin discharge. […]

T2 sequence (P61088 whole entry, other chains not shown): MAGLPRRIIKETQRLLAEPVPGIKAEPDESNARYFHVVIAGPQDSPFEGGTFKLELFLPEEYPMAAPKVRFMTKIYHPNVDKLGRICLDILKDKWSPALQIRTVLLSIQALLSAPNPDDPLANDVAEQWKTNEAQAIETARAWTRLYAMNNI
T2 sequence (Q15819 whole entry partner, other chains not shown): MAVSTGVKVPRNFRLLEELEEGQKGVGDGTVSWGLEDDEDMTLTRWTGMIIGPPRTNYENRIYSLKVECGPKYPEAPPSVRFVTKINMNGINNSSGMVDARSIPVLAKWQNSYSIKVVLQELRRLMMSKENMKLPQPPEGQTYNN

B1: R1-WT: isolated RING monomer construct, residues 2-89 of the rhesus TRIM5α (protein)
chain: ASGILLNVKEEVTCPICLELLTEPLSLHCGHSFCQACITANHKKSMLYKEGERSCPVCRISYQPENIQPNRHVANIVEKLREVKLSPEE
As for B1, the dimer-monomer exchange rate with TRIM5α RING domain is below 10 Hz.

B2: R2-WT: tandem RING dimer; R82 of first RING linked to A2 of second through Gly-Ser linker (protein)
chain: ASGILLNVKEEVTCPICLELLTEPLSLHCGHSFCQACITANHKKSMLYKEGERSCPVCRISYQPENIQPNRHVANIVEKLRGSASGILLNVKEEVTCPICLELLTEPLSLHCGHSFCQACITANHKKSMLYKEGERSCPVCRISYQPENIQPNRHVANIVEKLREVKLSPEEGQ
On to B2, for which, in the data set with UBE2N/V2-Ub conjugate, the “E3 activity (kcat/Km, initial slopes of Michaelis-Menten curves), ubiquitin discharge from UBE2N/V2-Ub conjugate” value was “significantly higher than that of the R1-WT”.
